# The nanobody polyreactivity screen of Harvey et al. (2022)
# Experiment: yeast display, Sf9 membrane polyspecificity reagent, FACS + sequencing; frameworks hold sequencing errors
# Procedure, shortened: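 Genes from sorted yeast were amplified by colony PCR, read by MiSeq 2 × 250 sequencing and filtered on CDR length. These cells carried a synthetic nanobody library in Saccharomyces cerevisiae BJ5465 and were sorted by FACS into low and high (top ~1%) gates on anti-HA and streptavidin fluorescence. Polyreactivity is labelled according to the gate of origin.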
row,Sequence,polyreactivity (PSR sort gate)
1,QVQLVESGGGLVQAGGSLRLSCAASGRTFRSYAMGWYRQAPGKERELVAAISWTGGSTYYADSVKGRFTISRDNAKNTVYLQMNSLKPEDTAVYYCAVRYRGYGYDWGQGTQVTVSS,high polyreactivity
2,QVQLVESGGGLVQAGGSLRLSCAASGRTFRTNAMGWYRQAPGKEPELVAAISRGGGSTYYADSVKGRFTISRDNAKNTVYLQMNSLKPEDTAVYDCNALRNGIAFGAMDYWGQGTQVNVSS,high polyreactivity
3,QVQLVESGGGLVQAGGSLRLSCAASGRTFRTYAMGWYRQAPGKERELVAVITVNSASTYYADSVKGRFTISRDYAKNTVYLQMKSLKPEDTAVYYCADYFIYGYWGQGTQVTVSS,low polyreactivity
4,QVQLVESGGGLVQAGGSLRLSCAASGRTFRTYTMGWYRQAPGKEREFVAAITSSGASTYYADSVKGRFTISRDNAKNTVYLQKNSLKPEDTAFYYCAARYGRRLVWVPALLYDYWGQGTQVTVSS,high polyreactivity
5,QVQLVESGGGLVQAGGSLRLSCAASGRTFRTYTMGWYRQAPGKERELVAAITSTGSTYYADSVKGRFTISRDNAKNTVYLQMNSLKPEDTAVYYCAAVYVAVGLVYEKYDYWGQGTQVTVSS,high polyreactivity
6,QVQLVESGGGLVQAGGSLRLSCAASGRTFRVYAMGWYRQAPGKEREFVAAISYSGGRTYYADSVKGRFTISRDNAKNTVYLQMNSLKPEDTAVYYCAAKTNRGSYSYDYWGQGTQVTVSS,high polyreactivity
7,QVQLVESGGGLVQAGGSLRLSCAASGRTFRVYAMGWYRQAPGKERELVAAISWSDGSTYYADSVKGRFTISRDYAKNTVYLQMNSLKPEDTAVYYCNARVRVPVTLHDYWGQCTQVTVSS,high polyreactivity
8,QVQLVESGGGLVQAGGSLRLSCAASGRTFRWYAMGWYRKAPGKEWELVAAISYRGGSTYADSVKGRFTISRDNEKNTVNLQMNSLKPEDTAVYYCAAKYYDYGPYYYWGQGTQETVSS,high polyreactivity
9,QVQLVESGGGLVQAGGSLRLSCAASGRTFRWYAMGWYRQAPGKERELVASITWSGGSTYYADSVKGRFTISRDNAKNSVYLQMNSLKPEDTAVYYCNRVLGVSLYEGNYWGQGTQVTVSS,high polyreactivity
10,QVQLVESGGGLVQAGGSLRLSCAASGRTFRYAMGWYRQSPGKERELVAGITTRGTSTYYADSVKGRFTISRDNAKNTVYLQMNSLKPEDTAVYYCNARPARAVYIHTPTYRYDYWGQGTQVTVSS,high polyreactivity
11,QVQLVESGGGLVQAGGSLRLSCAASGRTFRYNAMGWYRQAPGKERELVAAINWNGGSTYYADSVKGRFTISRDNAKNTVYLQMNSLKPEDTAVYYCNADFYHRYDWGQGTQVTVSS,high polyreactivity
12,QVQLVESGGGLVQAGGSLRLSCAASGRTFRYNAMGWYRQAPGKERELVAAISRSGGRTYYADSVKGRFTISRDNAKNTVYLQMNSLKPEDTAVYYCNAAPSWSTSFDSWGQGTQVTVSS,high polyreactivity
13,QVQLVESGGGLVQAGGSLRLSCAASGRTFRYNAMGWYRQATGKVRELVAAISGRGSSTYYADSVKGRFTISRDNAKNTVYLQMNSLKPDDTAVYYCAALPASVRRPGWHDYWGQGTQVTVSS,high polyreactivity
14,QVQLVESGGGLVQAGGSLRLSCAASGRTFRYNPMVWYRQAPGKERELVAAITWSGGSTYYADSVKGRFKISRDNAKNTVYLQMNSLKPEDTAVYYCNRRYYAYDWGQGTQVTVSS,high polyreactivity
15,QVQLVESGGGLVQAGGSLRLSCAASGRTFRYNVMGWYRQAPGKERELVAAIRKRSGSTYYADSVKGRFTISRDNAKNTVYLQMISLKPEDTAVYYCNTEYHYGTASASDYWGQGTQVTVSS,high polyreactivity
16,QVQLVESGGGLVQAGGSLRLSCAASGRTFRYYAIGWYRQAPGKERELVATISKSGGSTYYADSVKGRFTISRDNAKNTVYLQMNSLKPEDTAVYYCAAVGPYRWYDYWGQGTQVTVSS,high polyreactivity
17,QVQLVESGGGLVQAGGSLRLSCAASGRTFRYYALGWYRQAHGKERELVPRITRGATTNYADSVKGRFTISRDNAKNTVYLQMNSLKPEDTAVYYCAVTPLYGSDRRGWFSSDYWGQGTHVTVSS,high polyreactivity
18,QVQLVESGGGLVQAGGSLRLSCAASGRTFRYYAMGWYRPAPGKERELVAAINWSGGTTYYADSVKGRFTISRDNAKNTVYLQMNSLKPEDTAVYYCAAVYGYPSTSRYDYWGQGTQVTVSS,high polyreactivity
19,QVQLVESGGGLVQAGGSLRLSCAASGRTFRYYAMGWYRQAPGKERELFAAITSTGSTNYADSVKGRFTISRDNAKNTVYLQMNSLKPEDTAVYYCAARVNGKRRRYDYWGQGTQVTVSS,high polyreactivity
20,QVQLVESGGGLVQAGGSLRLSCAASGRTFRYYAMGWYRQAPGKERELVAAINRGGSTYYADSVKGRFTISRDNAKNTVYLQMNSLKPEDTAVYYCNVDKYRIVGFHSPYDYWGQGTQVTVSS,high polyreactivity
21,QVQLVESGGGLVQAGGSLRLSCAASGRTFRYYAMGWYRQAPGKERELVAAITSGGSTNYADSVKGRFTISRDNAKNTVYLQMNSLKPEDTAVYYCAAYWRSRNRFFWGQGTQVTVSS,high polyreactivity
22,QVQLVESGGGLVQAGGSLRLSCAASGRTFRYYAMGWYRQAPGKERELVADISWSGGRTTYADSVKGRFTISRDNAKNTVYLQMNSLKPEDTAVYYCAKVLYYPSHVSWGQGTQVTVSS,high polyreactivity

row,Sequence,polyreactivity (PSR sort gate)
1,QVQLVESGGGLVQAGGSLRLSCAASGRTFRYYAMVWYRQAPGKEREWVASISSSGARTYYADSVKGRFTISRDNAKNTVYLRMNSQKPEDSAVYYCAASQRSGHPSYDYWGQGTQVTVSS,high polyreactivity
2,QVQLVESGGGLVQAGGSLRLSCAASGRTFRYYTKGWYRQAPGKERELVAAITYSGGSTYYADSVKGRFTISRDNAMNTVYLQMNSLKPVDTAVYYCAAKASGNYYYYWGQGTQVTVSS,high polyreactivity
3,QVQLVESGGGLVQAGGSLRLSCAASGRTFSAYAMGWYRQAPGKEREFVAAITFNTGSTYYADSVKGRFTISRDNAKNTVYLQMNSLKPEDTAVYYCAAALVGSVGYKGFDGFDYWGQGTQVTVSS,low polyreactivity
4,QVQLVESGGGLVQAGGSLRLSCAASGRTFSAYAMGWYRQAPGKERELVADIRRGGGTNYADSVKGRFTISRDNAKNTVYLQMNSLKPEDTAVYYCAAGYLRTYTRRYYWGQGTQVTVSS,high polyreactivity
5,QVQLVESGGGLVQAGGSLRLSCAASGRTFSAYTMGWYRQAPGKERELVAAITSGTSTYYADSVKGRFTISRDNAKNTVYLQMNSLKPEDTAVYYCNARDSGRWWHIGQSGEDYWGQGTQVTVSS,low polyreactivity
6,QVQLVESGGGLVQAGGSLRLSCAASGRTFSDYAMGWYRQAPGKERELVAAISNGGNTYADSVKGRFTISRDNAKNTVYLQMNSLKPEDTAVYYCNKESGDTARQSIMPSGRGDYWGQGTQVTVSS,low polyreactivity
7,QVQLVESGGGLVQAGGSLRLSCAASGRTFSGNAMGWYRQAPGKEREFVAVISSNGGSTYYADSVKGRFTISRDNAKNTVYLQMNSLKPEDTAVYYCNARYWRGWGGRVSKYGYWGQGTQVTVSS,high polyreactivity
8,QVQLVESGGGLVQAGGSLRLSCAASGRTFSGNAMGWYRQAPGKERELVAAITGRGGTTYYADSVKGRFTISRDNAKNTVYLQMNSLKPEDTAVYYCAADTKLSYQWFDYWGQGTQVTVSS,high polyreactivity
9,QVQLVESGGGLVQAGGSLRLSCAASGRTFSGNTMGWYRQAPGKERELVAAITGRGGSTYYADSVKGRFTISRDNAKNTVYLQMNSLKPEDTAVYYCAALRYTFAGRFDYWGQGTQVTVSS,high polyreactivity
10,QVQLVESGGGLVQAGGSLRLSCAASGRTFSGYAMGWYRQAPGKERELVAAIDRGDGTNYADSVKGRYTISRDNAKNTVYLQMNSQIPEDTAVYYCAGDYSDGSTSLTYTGFVYWGQGTQVTVSS,low polyreactivity
11,QVQLVESGGGLVQAGGSLRLSCAASGRTFSGYAMGWYRQAPGKERELVAAISWRGGRTYYADSVKGRFTISRDNAKNTVYLQMNSLKPEDTAVYYCATTVGDAGRRYYYWGQGTQVTVSS,high polyreactivity
12,QVQLVESGGGLVQAGGSLRLSCAASGRTFSIYAMGWYRQAPGKERELVAAISRGVTTYADSVKGRFTISRDNAKNTVYLQMNSLKPEDTAVYYCNARTVVYVRGGYWGQGTQVTVSS,low polyreactivity
13,QVQLVESGGGLVQAGGSLRLSCAASGRTFSKYAMGWYRQAPGKERELVAAIRWSGGSTYYADSVKGRFTISRDNAKNTVYLQMNSLKPEDTAVYYCAKRSRGLKFDYWGQGTQVTVSS,high polyreactivity
14,QVQLVESGGGLVQAGGSLRLSCAASGRTFSKYTMGWYRQEPGKESELVAVISRSGTRTYYADSVKGRFTISRDNANNTVYLQMNSMKPEDTAVYYCAAKDERRSFGMGYWGQGTQVTVTS,high polyreactivity
15,QVQLVESGGGLVQAGGSLRLSCAASGRTFSLNAMGWYRQAPGKERELVAAINRGGTTYYADSVKGRFTISRDNAKNTVYVQMNSLKPEDTAVYYCAARYISSYDWGQGTQVTVSS,high polyreactivity
16,QVQLVESGGGLVQAGGSLRLSCAASGRTFSLYTMGWYRQAPWKERELVASITSSGSTSYADSVKGRFTISRDNAKNTVYLQMNSLKPEDTAVYYCNAAVSYPKYPYVSPGVPSYDYWGQGTQVTVSS,low polyreactivity
17,QVQLVESGGGLVQAGGSLRLSCAASGRTFSNNAMGWYRQAPGKERELVADITYSSDSTYYADSVKGRFTISRDNAKNTVYLQMNCLKPEDTAVYYCAADVVVGGSGSEYYYWGQGTQVTVSS,low polyreactivity
18,QVQLVESGGGLVQAGGSLRLSCAASGRTFSQNAMGWYRQAPGKERELVAAIRRGGSTNYADSVKGRFTISRDNEKNTVYLQMHSLKPEDTAVYYCAADLRRNGWGFDYWGQGTQVTVSS,high polyreactivity
19,QVQLVESGGGLVQAGGSLRLSCAASGRTFSRNAMGWYRPAPGKERQLVAAIRGSGTGTYYADSVKGRFTISRDNAKNTVYLQMNSLKPEDTPVYYSNADFISTRPPKATDEDYWGQGTQVTVSS,high polyreactivity
20,QVQLVESGGGLVQAGGSLRLSCAASGRTFSRNAMGWYRQAPGKERELVATITSDGSTNYADSVKGRFTISRDNAKITVYLQMNSLKPEDTAVYYCAAGEQSSIIGAHDYWGQGTQVTVSS,low polyreactivity
21,QVQLVESGGGLVQAGGSLRLSCAASGRTFSRYAMGWYRQAPGKERELVASITSRGGSTYYADSVKGRFTISRDNAKNTVYLQMNSLKPEDTAVYYCNVKPTYSTRYWEDYWGQGTQVTVSS,high polyreactivity
